{"source": "patent US20250092127A1", "about": "(Regeneron, published 2025)", "binders": {"B1": {"name": "REGN1103 (antibody, V domains shown)", "VH": "EVQLQQSGPELVKPGASVRMSCKASGYTFTDYNIHWVKQSHGKSLEWIGYIYPNNGDNGYNQKFRGKATLTVDKSSSTAYMELRSLTSDDSAVYYCARGRLRYFDVWGTGTTVTVSS", "VL": "NIVLTQSPASLAVSLGQRATISCRASESVDNYGHSFMHWYQQKPGQPPKLLIYLASNLESGVPARFSGSGSRTDFTLTLDPVEADDAATYYCQQYNEDPPTFGSGTKLEIK"}}, "biological_target": "T1, mouse IL-4R (mouse, UniProt P16382 26-233, limits assumed)", "T1 sequence (looked up)": "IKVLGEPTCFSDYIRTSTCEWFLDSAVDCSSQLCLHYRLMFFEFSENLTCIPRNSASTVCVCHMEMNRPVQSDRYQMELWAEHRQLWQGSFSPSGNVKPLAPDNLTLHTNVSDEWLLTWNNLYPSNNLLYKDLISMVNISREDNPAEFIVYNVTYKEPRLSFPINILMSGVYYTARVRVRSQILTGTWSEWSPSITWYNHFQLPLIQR", "assay": "cell-based or functional assay"}
{"binder": "B1", "values": [{"measurement": "IC50 of inhibition of IL-4-dependent proliferation of cell lines", "result": 1900, "unit": "pM"}, {"measurement": "IC50 of inhibition of IL-13-dependent proliferation of cell lines", "result": 11, "unit": "pM"}]}
